US20140356418A1

Assays:
[1] = target: Aβ42 fibrils (immobilized Aβ(1-42) fibrils) (UniProt P05067); assay: SPR, Aβ42 fibrils immobilized, Langmuir 1:1 fit, curves fitted separately; upper end of the range from curves fitted separately (1, 3, 6 µM RI-OR2-TAT)
[2] = target: Aβ42 fibrils (immobilized Aβ(1-42) fibrils) (UniProt P05067); assay: SPR, Aβ42 fibrils immobilized, Langmuir 1:1 fit
[3] = target: Aβ42 fibrils (immobilized Aβ(1-42) fibrils) (UniProt P05067); assay: SPR (Sensi Q), immobilized Aβ(1-42) fibrils, fit of a single curve; inset table row 2 (the row's concentration, 1 or 3 µM, is not given)
[4] = target: Aβ42 fibrils (immobilized Aβ(1-42) fibrils) (UniProt P05067); assay: SPR, Aβ fibrils (summary of the Examples)
[5] = target: Aβ42 fibrils (immobilized Aβ(1-42) fibrils) (UniProt P05067); assay: SPR, Aβ42 fibrils immobilized, Langmuir 1:1 fit, curves fitted separately; lower end of the range from curves fitted separately (1, 3, 6 µM RI-OR2-TAT)
[6] = target: Aβ42 fibrils (immobilized Aβ(1-42) fibrils) (UniProt P05067); assay: SPR (Sensi Q), immobilized Aβ(1-42) fibrils, fit of a single curve; (the concentration, 1 or 3 µM, is not given)

Aβ42 fibrils (immobilized Aβ(1-42) fibrils), sequence (P05067 672-713 limits assumed): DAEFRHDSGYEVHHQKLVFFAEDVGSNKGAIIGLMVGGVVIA

| Substance | Kd [1] [nM] | koff [2] [s⁻¹] | kon [2] [M⁻¹ s⁻¹] | Kd [3] [nM] | koff [3] [s⁻¹] | kon [3] [M⁻¹ s⁻¹] | Kd [4] [nM] | Kd [5] [nM] | Kd [6] [nM] | koff [6] [s⁻¹] | kon [6] [M⁻¹ s⁻¹] |
| --- | --- | --- | --- | --- | --- | --- | --- | --- | --- | --- | --- |
| RI-OR2-TAT (Ac-rGffvlkGrrrrqrrkkrGy-NH2) (peptide) | 58 to 125 | 0.00037 | 3680 | 41.5 | 0.000994 | 23900 | 41 to 75 | 58 to 125 | 75.6 | 0.00096 | 12700 |
| PINPs (Peptide Inhibitor NanoParticles): RI-OR2-TAT covalently attached to nanoliposomes |  |  |  | 44.7 | 5.31e-05 | 1190 | 14 to 44 |  | 14.8 | 6.71e-05 | 4520 |
